Where a chain is given by its changes, count along the chain named. Numbers in names are those of the source. Entries after “also recorded” stand apart in the source; their conditions may differ. Blank lines part the entries; values can stand above or below the molecule they belong to.
System: E2F1/Dp-1 heterodimer
Assay: Rb activity assay (LB-Rb with E2F1-SB, DP1 split luciferase)
Type: cell-based, human
Design: key to Observed activity: N—no activity; A—active as WT; R—reduced activity compared to the WT
Settings: for Observed activity / % (/wt): Rb mutants; for % (/wt): activity relative to WT; for luciferase activity / E2F1 interaction of Rb mutant: LB-Rb and E2F1-SB with Dp-1
Description: An assay that could measure the interaction between Rb, E2F1, and Dp-1 was developed. Since Dp-1 forms a heterodimer with E2F1 and that interaction is crucial for Rb/E2F1 binding, the assay was comprised of three components. When two proteins (Rb and E2F1) are in close proximity or in complex, a light signal was observed. For the purposes of the current assay, split-luciferase complementation was used to measure the interaction between Rb and E2F1. The NanoBiT assay system by Promega (Madison, Wis.; Dixon et al., 2015, ACS ChemBiol) was used in our split luciferase complementation design.
FIG. 16 depicts the design of a signal system to measure Rb activity. Under basal conditions inside the cell, Rb was active and interacted with the E2F1/Dp-1 heterodimer. For this assay design, cDNAs of Rb linked to different parts of the luciferase protein, either termed as the “Small BiT” (SB), or “Large BiT” (LB) and E2F1 linked to the opposite portion of the luciferase protein were created. When Rb and E2F1/Dp-1 bind, the NanoBiT parts of the luciferase form a complex and emitted a light signal when the luciferase (NanoGlo) substrate was added.
Using the described assay design, HEK293 CDK DKO cells were transiently transfected with different combinations of SB-Rb or LB-Rb and E2F1-LB or E2F1-SB components containing C-terminal and N-terminal constructs (FIG. 17). Relative intensities generated are presented in FIG. 17 as relative luminescence units (RLU). The data represents a sample experiment where each condition was performed in triplicate and represent mean+SD.
The LB-Rb and E2F1-SB with Dp-1 were tested for Rb activity using known Rb null mutants: R661W and C706F (FIG. 18A). […] Rb in-frame (del35) and out-of frame (del1) deletion mutants (FIG. 18B) were constructed and the observed luciferase activity was close to 0, in particular for del1 mutant, because Rb-E2F1 binding was destroyed.
Within the provided assay design, stable cell lines using the HEK293 CDK DKO cell parent line expressing E2F1-SB and Dp-1 were produced. After selection and screening for positive clones using an LB-Rb-mediated increase in signal, four stable single cell clones were selected and evaluated using different Rb mutants (FIGS. 19A and 19B). The response to E2F1 interaction was also checked by using the plasmid and linear form of DNA. Cell line #37 was selected for all our experiments in assay development due to its favorable response.
The conditions of the assay were further optimized by analyzing different cell numbers and Rb concentrations (FIG. 20). Based on the data, it was decided to use 0.2×10^6 cells/ml and 70 ng of DNA in the assay.
Known null and out/in-frame deletion mutants disrupting E2F1 binding and unknown COSMIC mutants were created to examine the ability of the assay to detect variants in Rb that affect function. We transfected WT or mutated Rb using similar conditions as previously indicated (FIG. 20). […] In addition, the null C706F and deletion (del1) mutants presented a signal close to zero as expected for loss of function mutants that disrupt E2F1 interaction. […] This confirmed that the assay was capable of determining the relative activity level of Rb mutants. The data is provided in Luminescence (RLU) of a single experiment with each condition performed in triplicate and represent average+SD.

Sequence of E2F1/Dp-1 heterodimer (Q01094 58-437 limits assumed): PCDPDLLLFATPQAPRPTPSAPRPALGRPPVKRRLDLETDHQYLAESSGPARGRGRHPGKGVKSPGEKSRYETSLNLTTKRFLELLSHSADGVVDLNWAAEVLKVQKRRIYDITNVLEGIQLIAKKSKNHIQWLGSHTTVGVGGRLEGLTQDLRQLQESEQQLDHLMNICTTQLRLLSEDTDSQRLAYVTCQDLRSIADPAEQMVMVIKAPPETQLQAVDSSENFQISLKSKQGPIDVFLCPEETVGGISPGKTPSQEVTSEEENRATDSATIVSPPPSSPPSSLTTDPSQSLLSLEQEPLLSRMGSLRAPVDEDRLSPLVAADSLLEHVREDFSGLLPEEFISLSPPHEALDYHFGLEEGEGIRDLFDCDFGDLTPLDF
Sequence of E2F1/Dp-1 heterodimer (Q14186 whole entry, further chain): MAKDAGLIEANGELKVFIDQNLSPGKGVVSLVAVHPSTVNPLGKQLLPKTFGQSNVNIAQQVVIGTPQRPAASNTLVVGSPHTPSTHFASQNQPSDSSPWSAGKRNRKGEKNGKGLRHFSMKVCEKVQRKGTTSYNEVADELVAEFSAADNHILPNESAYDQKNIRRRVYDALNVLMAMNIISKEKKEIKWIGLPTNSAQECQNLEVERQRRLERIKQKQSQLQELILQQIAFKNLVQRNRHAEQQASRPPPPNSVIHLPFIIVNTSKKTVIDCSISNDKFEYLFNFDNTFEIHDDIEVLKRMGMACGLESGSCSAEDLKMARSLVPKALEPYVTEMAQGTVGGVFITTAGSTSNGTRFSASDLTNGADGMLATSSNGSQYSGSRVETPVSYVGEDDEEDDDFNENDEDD

- Observed activity: N
- % (/wt): 5.2%
B2: Rb R661W: known Rb null mutant (protein, UniProt P06400 2-928, looked up, variant R661W)
Retinoblastoma-associated …: PPKTPRKTAATAAAAAAEPPAPPPPPPPEEDPEQDSGPEDLPLVRLEFEETEEPDFTALCQKLKIPDHVRERAWLTWEKVSSVDGVLGGYIQKKKELWGICIFIAAVDLDEMSFTFTELQKNIEISVHKFFNLLKEIDTSTKVDNAMSRLLKKYDVLFALFSKLERTCELIYLTQPSSSISTEINSALVLKVSWITFLLAKGEVLQMEDDLVISFQLMLCVLDYFIKLSPPMLLKEPYKTAVIPINGSPRTPRRGQNRSARIAKQLENDTRIIEVLCKEHECNIDEVKNVYFKNFIPFMNSLGLVTSNGLPEVENLSKRYEEIYLKNKDLDARLFLDHDKTLQTDSIDSFETQRTPRKSNLDEEVNVIPPHTPVRTVMNTIQQLMMILNSASDQPSENLISYFNNCTVNPKESILKRVKDIGYIFKEKFAKAVGQGCVEIGSQRYKLGVRLYYRVMESMLKSEEERLSIQNFSKLLNDNIFHMSLLACALEVVMATYSRSTSQNLDSGTDLSFPWILNVLNLKAFDFYKVIESFIKAEGNLTREMIKHLERCEHRIMESLAWLSDSPLFDLIKQSKDREGPTDHLESACPLNLPLQNNHTAADMYLSPVRSPKKKGSTTRVNSTANAETQATSAFQTQKPLKSTSLSLFYKKVYRLAYLWLNTLCERLLSEHPELEHIIWTLFQHTLQNEYELMRDRHLDQIMMCSMYGICKVKNIDLKFKIIVTAYKDLPHAVQETFKRVLIKEEEYDSIIVFYNSVFMQRLKTNILQYASTRPPTLSPIPHIPRSPYKFPSSPLRIPGGNIYISPLKSPYKISEGLPTPTKMTPRSRILVSIGESFGTSEKFQKINQMVCNSDRVLKRSAEGSNPPKPLKKLRFDIEGSDEADGSKHLPGESKFQQKLAEMTSTRTRMQKQKMNDSMDTSNKEEK
- luciferase activity / E2F1 interaction of Rb mutant: completely disrupted the E2F1 interaction

- Observed activity: A
- % (/wt): 92%
B4: Rb R798Q: Rb mutant from COSMIC database (protein, UniProt P06400 2-928, looked up, variant R798Q)
Retinoblastoma-associated …: B2 Retinoblastoma-associated … with W660R, R797Q

- Observed activity: A
- % (/wt): 124%
B5: Rb R621S: Rb mutant from COSMIC database (protein, UniProt P06400 2-928, looked up, variant R621S)
Retinoblastoma-associated …: B2 Retinoblastoma-associated … with R620S, W660R

- Observed activity: N
- % (/wt): 6.4%
B8: Rb R698W: Rb mutant from COSMIC database (protein, UniProt P06400 2-928, looked up, variant R698W)
Retinoblastoma-associated …: B2 Retinoblastoma-associated … with W660R, R697W

- Observed activity: A
- % (/wt): 79%
B11: Rb R656W: Rb mutant from COSMIC database (protein, UniProt P06400 2-928, looked up, variant R656W)
Retinoblastoma-associated …: B2 Retinoblastoma-associated … with R655W, W660R

- Observed activity: A
- % (/wt): 132%
B12: Rb V654M: Rb mutant from COSMIC database (protein, UniProt P06400 2-928, looked up, variant V654M)
Retinoblastoma-associated …: B2 Retinoblastoma-associated … with V653M, W660R

- Observed activity: A
- % (/wt): 120%
B13: Rb R798W: Rb mutant from COSMIC database (protein, UniProt P06400 2-928, looked up, variant R798W)
Retinoblastoma-associated …: B2 Retinoblastoma-associated … with W660R, R797W

The remaining lines, values behind:

B1: Rb I680T: Rb mutant from COSMIC database (protein)
chain: MVFTLEDFVGDWEQTAAYNLDQVLEQGGVSSLLQNLAVSVTPIQRIVRSGENALKIDIHVIIPYEGLSADQMAQIEEVFKVVYPVDDHHFKVILPYGTLVIDGVTPNMLNYFGRPYEGIAVFDGKKITVTGTLWNGNKIIDERLITPDGSMLFRVTINSGSSGGGGSGGGGSSGGAQGNSNTIQQLMMILNSASDQPSENLISYFNNCTVNPKESILKRVKDIGYIFKEKFAKAVGQGCVEIGSQRYKLGVRLYYRVMESMLKSEEERLSIQNFSKLLNDNIFHMSLLACALEVVMATYSRSTSQNLDSGTDLSFPWILNVLNLKAFDFYKVIESFIKAEGNLTREMIKHLERCEHRIMESLAWLSDSPLFDLIKQSKDREGPTDHLESACPLNLPLQNNHTAADMYLSPVRSPKKKGSTTRVNSTANAETQATSAFQTQKPLKSTSLSLFYKKVYRLAYLRLNTLCERLLSEHPELEHITWTLFQHTLQNEYELMRDRHLDQIMMCSMYGICKVKNIDLKFKIIVTAYKDLPHAVQETFKRVLIKEEEYDSIIVFYNSVFMQRLKTNILQYASTRPPTLSPIPHIPRSPYKFPSSPLRIPGGNIYISPLKSPYKISEGLPTPTKMTPRSRILVSIGESFGTSEKFQKINQMVCNSDRVLKRSAEGSNPPKPLKKLRFDIEGSDEADGSKHLPGESKFQQKLAEMTSTRTRMQKQKMNDSMDTSNKEEK
- Observed activity: R
- % (/wt): 32%

B3: Rb I724N: Rb mutant from COSMIC database (protein, UniProt P06400 2-928, looked up, variant I724N)
Retinoblastoma-associated …: B2 Retinoblastoma-associated … with W660R, I723N
- Observed activity: N
- % (/wt): 7.4%

B6: Rb A488V: Rb mutant from COSMIC database (protein, UniProt P06400 2-928, looked up, variant A488V)
Retinoblastoma-associated …: B2 Retinoblastoma-associated … with A487V, W660R
- Observed activity: R
- % (/wt): 51%

B7: Rb C706F: known Rb null mutant (protein, UniProt P06400 2-928, looked up, variant C706F)
Retinoblastoma-associated …: B2 Retinoblastoma-associated … with W660R, C705F
- luciferase activity / E2F1 interaction of Rb mutant: completely disrupted the E2F1 interaction; also recorded: close to zero
- Observed activity: N
- % (/wt): 5.5%

B9: Rb L665R: Rb mutant from COSMIC database (protein, UniProt P06400 2-928, looked up, variant L665R)
Retinoblastoma-associated …: B2 Retinoblastoma-associated … with W660R, L664R
- Observed activity: N
- % (/wt): 5%

B10: Rb E440K: Rb mutant from COSMIC database (protein, UniProt P06400 2-928, looked up, variant E440K)
Retinoblastoma-associated …: B2 Retinoblastoma-associated … with E439K, W660R
- Observed activity: R
- % (/wt): 47%

From patent publication US11702666B2, “Cell-based assay for determining activity in the retinoblastoma pathway” (Medical Diagnostic Laboratories, LLC, priority 2017, dated 2023)
